Article PMC9593262 (iScience, 2022)
No end group written: not given here. *: point of attachment. Biotin = O=C1N[C@H]2[C@H](CS[C@H]2CCCCC(=O)*)N1

How the values were obtained:
[1] = molecular target: T1, Recombinant mouse NRP-1 protein (mouse, UniProt P97333 22-856); test: plate binding assay read by fluorescence of PE-labelled streptavidin
T1 sequence (looked up): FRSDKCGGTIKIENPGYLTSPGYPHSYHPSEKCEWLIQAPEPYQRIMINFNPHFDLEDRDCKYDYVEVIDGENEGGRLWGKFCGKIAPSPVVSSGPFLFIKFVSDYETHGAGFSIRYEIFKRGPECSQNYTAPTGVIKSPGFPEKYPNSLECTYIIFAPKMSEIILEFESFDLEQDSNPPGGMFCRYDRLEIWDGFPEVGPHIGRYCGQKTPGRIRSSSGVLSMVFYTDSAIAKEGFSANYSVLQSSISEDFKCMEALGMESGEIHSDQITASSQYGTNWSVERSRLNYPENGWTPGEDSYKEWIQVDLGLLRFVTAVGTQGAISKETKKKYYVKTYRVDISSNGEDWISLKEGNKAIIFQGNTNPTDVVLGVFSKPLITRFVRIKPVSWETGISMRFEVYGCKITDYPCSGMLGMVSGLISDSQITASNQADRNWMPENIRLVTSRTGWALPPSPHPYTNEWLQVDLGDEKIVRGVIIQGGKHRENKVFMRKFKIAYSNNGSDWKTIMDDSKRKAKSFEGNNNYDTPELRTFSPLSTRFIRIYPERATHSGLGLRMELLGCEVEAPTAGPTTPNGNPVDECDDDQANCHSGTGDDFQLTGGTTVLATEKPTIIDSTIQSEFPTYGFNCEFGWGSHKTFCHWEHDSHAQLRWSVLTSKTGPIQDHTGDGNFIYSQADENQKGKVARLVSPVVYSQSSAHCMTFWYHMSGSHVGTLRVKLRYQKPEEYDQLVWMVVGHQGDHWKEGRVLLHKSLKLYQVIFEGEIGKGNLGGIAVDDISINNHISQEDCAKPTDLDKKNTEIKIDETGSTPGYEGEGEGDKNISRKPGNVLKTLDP

[2] = molecular target: T2, Recombinant nucleolin protein (murine, residues 309–644) (mouse, UniProt P09405 309-644); test: as above
[3] = molecular target: T2, Recombinant nucleolin protein (murine, …); test: plate competition assay read by fluorescence of PE-labelled streptavidin

T2 sequence (P09405 309-644): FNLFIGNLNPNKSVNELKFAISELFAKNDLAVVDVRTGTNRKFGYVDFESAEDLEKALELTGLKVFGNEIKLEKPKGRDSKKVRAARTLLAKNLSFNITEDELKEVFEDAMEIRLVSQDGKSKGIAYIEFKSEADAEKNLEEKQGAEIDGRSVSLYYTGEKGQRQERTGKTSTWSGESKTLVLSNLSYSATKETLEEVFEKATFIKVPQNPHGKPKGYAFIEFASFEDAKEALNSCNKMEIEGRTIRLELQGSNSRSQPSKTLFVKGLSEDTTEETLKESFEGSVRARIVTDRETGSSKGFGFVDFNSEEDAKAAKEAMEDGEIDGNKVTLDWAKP

Binder: Biotin-VSYKAIR [biotin-labeled DC-targeting peptide Dp1]
- binding result [1]: binds

Binder: Biotin-VSYKAIRVSYKAIRVSYKAIR [biotin-labeled Dp1×3]
- binding result [2]: binds

Binder: VSYKAIRVSYKAIRVSYKAIR [Dp1×3 (unlabelled)]
- binding result [3]: binds
